# B1: Tyrosine-protein phosphatase non-receptor type 1 (Gallus gallus (Chicken)), O13016 (parent)
# chain: MEIEKEFHRLDQAASWAAIYQDIRHEASDFPCKVAKHPRNKNRNRYRDVSPFDHSRIKLNQGDNDYINASLIKMEEAQRSYILTQGPLPNTCGHFWEMVWEQKSRGVVMLNRVMEKGSIKCAQYWPRKEEKEMFFEDTNLKLTLISEDIKSYYTVRQLELENLTTQETREILHFHYTTWPDFGVPESPASFLNFLFKVRESGSLNPEYGPVVVHCSAGIGRSGTFCLVDTCLLLMDKRKDPSSVDVKQVLLEMRKYRMGLIQTADQLRFSYLAVIEGAKFIMGDASVQEQWKELSNEDLDPPPEHTPPPPRPPKRTSEMHNGRMHEHAEFFPKHQVVEEEIRCSVSTAEETVSDGRVFSSVPLITDSTSQDTEIRRRTVGENLHVTAHKEESKSESVEEDDENMMTTWKPFLVNICMFTFLTAGAYLCYRVCFH
# Variants of: B1
# Settings: with fer_human FER
row,Variant,effect of a mutation on the interaction
1,Y152F,disrupting interaction
2,C215S,disrupting interaction

# Source: IntAct's records for PubMed 15226396
